Assays:
HDAC6 = HDAC6 (UniProt Q9UBN7); experiment: Strep bait enrichment from lysate, Western blot; conditions: reference: unmodified Strep-NEDD8; sites S65
Parkin = Parkin (UniProt O60260); experiment: Strep-Tactin pull-down, anti-Parkin blot; conditions: reference: unmodified Strep-NEDD8; sites S65

binding against the reference (HDAC6): stronger
binding against the reference (Parkin): stronger
Substance: NEDD8 1-76 (from UniProt Q15843) Strep-pNEDD8 (pS65)
